The term Kd denotes a measure of binding affinity in units of concentration.

This note sets out measurements from publication PMC11939848, “Aptamer-Based Graphene Field-Effect Transistor Biosensor for Cytokine Detection in Undiluted Physiological Media for Cervical Carcinoma Diagnosis”.

Data set [1] deals with T1, TNF-alpha (UniProt P01375 77-233). As to the kind of experiment: graphene FET (Hill-Langmuir fit); no PEG, 1x PBS; 1x PBS, artificial sweat (10x diluted or undiluted) or undiluted lavage fluid; aptamer immobilized on graphene; pH and temperature not stated. Particulars: protein: commercial; chain copies: 3; G-quadruplex, two G-tetrads.
T1 sequence (P01375 77-233): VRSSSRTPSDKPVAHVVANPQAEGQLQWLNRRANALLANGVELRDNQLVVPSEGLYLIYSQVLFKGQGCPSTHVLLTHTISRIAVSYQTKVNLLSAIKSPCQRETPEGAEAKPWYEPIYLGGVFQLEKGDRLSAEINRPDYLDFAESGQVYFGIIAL
For data set [2], the target named is T1, TNF-alpha. Description: graphene FET (Hill-Langmuir fit); 1000 Da PEG, 1x PBS; 1x PBS, artificial sweat (10x diluted or undiluted) or undiluted lavage fluid; aptamer immobilized on graphene; pH and temperature not stated. Particulars: protein: commercial; chain copies: 3; G-quadruplex, two G-tetrads.
The target in data set [3] is T1, TNF-alpha. As to the kind of experiment: graphene FET (Hill-Langmuir fit); 2000 Da PEG, 1x PBS; 1x PBS, artificial sweat (10x diluted or undiluted) or undiluted lavage fluid; aptamer immobilized on graphene; pH and temperature not stated. Particulars: protein: commercial; chain copies: 3; G-quadruplex, two G-tetrads.
The target in data set [4] is T2, IL-6 (UniProt P05231 30-212). As to the kind of experiment: graphene FET (Hill-Langmuir fit); 1000 Da PEG, PBS; 1x PBS, artificial sweat (10x diluted or undiluted) or undiluted lavage fluid; aptamer immobilized on graphene; pH and temperature not stated. Conditions: protein: commercial.
T2 sequence (P05231 30-212): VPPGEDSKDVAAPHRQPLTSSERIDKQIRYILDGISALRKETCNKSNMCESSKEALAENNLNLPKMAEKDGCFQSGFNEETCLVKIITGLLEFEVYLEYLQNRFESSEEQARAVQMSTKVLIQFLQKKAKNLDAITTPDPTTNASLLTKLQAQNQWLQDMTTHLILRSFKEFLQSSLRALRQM
The target in data set [5] is T2, IL-6. As to the kind of experiment: graphene FET (Hill-Langmuir fit); 2000 Da PEG, undiluted lavage fluid; 1x PBS, artificial sweat (10x diluted or undiluted) or undiluted lavage fluid; aptamer immobilized on graphene; pH and temperature not stated. Particulars: protein: commercial.
Data set [6] has as its target T2, IL-6. Description: graphene FET (Hill-Langmuir fit); 1000 Da PEG, undiluted lavage fluid; 1x PBS, artificial sweat (10x diluted or undiluted) or undiluted lavage fluid; aptamer immobilized on graphene; pH and temperature not stated. Particulars: protein: commercial.
The target of data set [7] is T2, IL-6. As to the kind of experiment: graphene FET (Hill-Langmuir fit); 2000 Da PEG, PBS; 1x PBS, artificial sweat (10x diluted or undiluted) or undiluted lavage fluid; aptamer immobilized on graphene; pH and temperature not stated. Particulars: protein: commercial.

In the case of TGGTGGATGGCGCAGTCGGCGACAA (ssDNA, 5'-NH2) [TNF-alpha aptamer], the results for the Kd in the data set with TNF-alpha [1], in the data set with TNF-alpha [2] and in the data set with TNF-alpha [3] were 2.82 ± 0.19 nM, 1.52 ± 0.35 nM and 1.21 ± 0.44 nM, respectively.
In the case of GGTGGCAGGAGGACTATTTATTTGCTTTTCT (ssDNA, 5'-NH2) [IL-6 aptamer], the dissociation constant (Kd) with IL-6 [4] was found to be 0.084 ± 0.023 nM; with IL-6 [5] it was 0.194 ± 0.023 nM; with IL-6 [6] it was 0.57 ± 0.096 nM; with IL-6 [7], 0.188 ± 0.052 nM.
